Source: patent US20150329626A1

Columns and labels:
[1] = target: mouse Ang2 (mouse) (UniProt O35608); assay: Biacore SPR, 37 C, n = 3, antibody captured on Protein A
[2] = target: human Ang2 (human) (UniProt O15123); assay: as above
[3] = target: dog Ang2 (dog); assay: as above
[4] = target: rabbit Ang2 (rabbit) (UniProt G1T9B3); assay: as above
[5] = target: cyno Ang2 (cynomolgus monkey); assay: as above
[6] = target: human Ang2 (human) (UniProt O15123); assay: competition ELISA: blocking of biotinylated human Ang2 binding to plate-coated human Tie2-Fc
[7] = target: human Ang2 (human) (UniProt O15123); assay: cell-based or functional assay

Chain of mouse Ang2 (mouse) (O35608 19-496 limits assumed): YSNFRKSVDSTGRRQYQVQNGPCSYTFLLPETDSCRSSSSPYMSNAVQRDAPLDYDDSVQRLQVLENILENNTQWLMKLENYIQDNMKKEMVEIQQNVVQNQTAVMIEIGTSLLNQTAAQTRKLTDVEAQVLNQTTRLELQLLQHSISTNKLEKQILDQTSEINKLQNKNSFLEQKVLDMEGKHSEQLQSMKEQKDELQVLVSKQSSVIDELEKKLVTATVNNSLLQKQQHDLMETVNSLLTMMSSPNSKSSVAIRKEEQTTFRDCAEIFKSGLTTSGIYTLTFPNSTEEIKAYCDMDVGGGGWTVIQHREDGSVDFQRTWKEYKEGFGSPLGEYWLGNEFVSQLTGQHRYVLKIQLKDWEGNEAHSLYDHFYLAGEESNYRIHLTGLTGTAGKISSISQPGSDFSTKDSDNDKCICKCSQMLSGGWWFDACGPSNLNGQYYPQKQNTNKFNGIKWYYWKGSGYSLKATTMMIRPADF
Chain of rabbit Ang2 (rabbit) (G1T9B3 entry or part of it): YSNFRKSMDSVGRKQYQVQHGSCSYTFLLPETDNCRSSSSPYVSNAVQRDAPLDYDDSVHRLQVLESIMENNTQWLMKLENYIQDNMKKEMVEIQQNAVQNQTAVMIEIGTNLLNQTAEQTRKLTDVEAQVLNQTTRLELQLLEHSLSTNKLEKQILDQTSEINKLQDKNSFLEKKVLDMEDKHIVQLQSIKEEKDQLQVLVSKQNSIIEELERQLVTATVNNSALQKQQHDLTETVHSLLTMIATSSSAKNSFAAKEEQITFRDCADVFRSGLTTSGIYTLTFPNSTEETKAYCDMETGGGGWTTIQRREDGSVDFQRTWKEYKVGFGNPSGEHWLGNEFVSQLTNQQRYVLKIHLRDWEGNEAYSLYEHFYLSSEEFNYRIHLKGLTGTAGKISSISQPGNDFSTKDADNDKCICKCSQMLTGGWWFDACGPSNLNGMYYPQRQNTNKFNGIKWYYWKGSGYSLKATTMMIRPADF
Chain of human Ang2 (human) (O15123 19-496 limits assumed): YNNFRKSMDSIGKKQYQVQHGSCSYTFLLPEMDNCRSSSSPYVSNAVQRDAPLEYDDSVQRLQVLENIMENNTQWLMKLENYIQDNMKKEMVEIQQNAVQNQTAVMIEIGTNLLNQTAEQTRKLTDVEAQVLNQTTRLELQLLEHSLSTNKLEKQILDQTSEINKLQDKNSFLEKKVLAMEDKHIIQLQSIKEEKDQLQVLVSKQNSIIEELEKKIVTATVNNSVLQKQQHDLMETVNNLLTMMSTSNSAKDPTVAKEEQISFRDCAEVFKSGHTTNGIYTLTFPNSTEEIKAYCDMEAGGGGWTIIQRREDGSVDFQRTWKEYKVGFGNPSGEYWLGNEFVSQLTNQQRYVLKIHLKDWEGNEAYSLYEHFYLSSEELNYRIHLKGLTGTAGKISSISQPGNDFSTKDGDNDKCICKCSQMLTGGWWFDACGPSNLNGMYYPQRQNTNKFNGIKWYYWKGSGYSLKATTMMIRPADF
Chain of dog Ang2 (dog) (A0A8J8 19-495 limits assumed): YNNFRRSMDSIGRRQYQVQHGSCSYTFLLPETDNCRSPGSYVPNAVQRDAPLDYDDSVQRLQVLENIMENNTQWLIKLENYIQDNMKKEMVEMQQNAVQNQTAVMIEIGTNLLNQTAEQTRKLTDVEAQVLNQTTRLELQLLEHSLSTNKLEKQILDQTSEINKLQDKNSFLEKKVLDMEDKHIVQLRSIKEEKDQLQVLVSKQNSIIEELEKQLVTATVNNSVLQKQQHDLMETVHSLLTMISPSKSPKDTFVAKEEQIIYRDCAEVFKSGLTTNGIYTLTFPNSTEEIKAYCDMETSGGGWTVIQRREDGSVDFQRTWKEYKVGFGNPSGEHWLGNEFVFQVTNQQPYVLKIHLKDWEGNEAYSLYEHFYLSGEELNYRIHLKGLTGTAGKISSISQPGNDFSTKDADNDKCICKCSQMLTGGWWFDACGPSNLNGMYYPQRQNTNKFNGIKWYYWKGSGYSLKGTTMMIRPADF

Kd [1]: 0.109 nM
koff [1]: 0.00011 s⁻¹
kon [1]: 1e+06 M⁻¹ s⁻¹
Kd [2]: 0.08 nM
koff [2]: 7e-05 s⁻¹
kon [2]: 1e+06 M⁻¹ s⁻¹
Kd [3]: 0.14 nM
koff [3]: 0.00011 s⁻¹
kon [3]: 790000 M⁻¹ s⁻¹
Kd [4]: 0.21 nM
koff [4]: 0.00015 s⁻¹
kon [4]: 730000 M⁻¹ s⁻¹
Kd [5]: 0.107 nM
koff [5]: 0.00029 s⁻¹
kon [5]: 2.7e+06 M⁻¹ s⁻¹
IC50 [6]: 0.027 nM
inhibition of human Ang2 induced phospho-Tie2 in CHO-Tie2 cells (IC50) [7]: 0.773 nM
B1: Ang2 antibody with the same HCDRs and LCDRs as the scFv polypeptide portion of Compound F (antibody, V domains shown)
VH: QVQLVQSGAEVKKPGSSVKVSCKASGYSFTDYNMVWVRQAPGQCLEWMGYIDPYNGGTGYNQKFEGRVTITADESTSTAYMELSSLRSEDTAVYYCARTRDRYDVWYFDVWGQGTLVTVSS
VL: DIVMTQSPDSLAVSLGERATINCKASQDVYIAVAWYQQKPGQPPKLLIYWASTRDTGVPDRFSGSGSGTDFTLTISSLQAEDVAVYYCHQYSSYPPTFGCGTKVEIK
modifications: CDRs only; frameworks, constant regions missing
